In the supplement of paper PMC10724198:
± gives the standard deviation of the averaged measurements.

Assays:
Saccharomyces cerevisiae [1] = experiment: protein stability index of tFT-peptide fusion (C-terminal peptide) (PSI (0-1 scale)); higher = more stable (slower turnover)
Protocol: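 MPS profiling in S. cerevisiae of the tFT-X12 degron library: putative degron peptides plus stable controls, 12 aa, fused to the C-terminus of a sfGFP-mCherry timer. Cells are FACS-sorted into 8 mCherry/sfGFP bins and deep-sequenced. PSI runs from 0 (unstable) to 1 (stable). Backgrounds are wild type, das1Δ and doa10Δ at 30 °C, and wild type, das1Δ, cdc34-1 and cdc53-1 at 37 °C; 2-3 technical replicates each.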

Saccharomyces cerevisiae [2] = experiment: as above; settings: genetic background: wild type; temperature: 30 C
[3] = genetic background: cdc34-1, temperature: 37 C
[4] = genetic background: cdc53-1, temperature: 37 C
[5] = genetic background: das1 deletion, temperature: 30 C
[6] = genetic background: das1 deletion, temperature: 37 C
[7] = genetic background: doa10 deletion, temperature: 30 C
[8] = genetic background: wild type, temperature: 30 C
[9] = genetic background: wild type, temperature: 37 C
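Further: PSI is a weighted mean of sequencing reads over stability bins, variants kept only with over 10 reads, mCherry proximal and sfGFP distal, peptide attached via GGGS linker.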

| Sequence | protein stability index (Saccharomyces cerevisiae [1]; [3]) | protein stability index (Saccharomyces cerevisiae [1]; [4]) | protein stability index (Saccharomyces cerevisiae [1]; [5]) | protein stability index (Saccharomyces cerevisiae [1]; [6]) | protein stability index (Saccharomyces cerevisiae [1]; [7]) | protein stability index (Saccharomyces cerevisiae [1]; [8]) | protein stability index (Saccharomyces cerevisiae [1]; [9]) | protein stability index (Saccharomyces cerevisiae [2]) |
| --- | --- | --- | --- | --- | --- | --- | --- | --- |
| RHCCIVPLCRVR | 0.491 ± 0.061 | 0.512 ± 0.013 | 0.324 ± 0.028 | 0.555 ± 0.028 | 0.285 ± 0.013 | 0.321 ± 0.028 | 0.507 ± 0.0081 | 0.464 ± 0.045 |
| RHSFSRVKLIQF | 0.593 ± 0.046 | 0.6834 ± 0.00096 | 0.65 ± 0.032 | 0.732 ± 0.0089 | 0.0871 ± 0.021 | 0.0925 ± 0.033 | 0.117 ± 0.0029 | 0.113 ± 0.033 |
| RILKEFKRIAVL | 0.501 ± 0.05 | 0.687 ± 0.092 | 0.479 ± 0.024 | 0.7193 ± 0.006 | 0.093 ± 0.0061 | 0.0985 ± 0.016 | 0.139 ± 0.032 | 0.168 ± 0.031 |
| RIYIRVSLIAPR | 0.523 ± 0.026 | 0.59 ± 0.05 | 0.48 ± 0.021 | 0.5646 ± 0.0015 | 0.496 ± 0.034 | 0.48 ± 0.014 | 0.537 ± 0.017 | 0.509 ± 0.14 |
| RLFMVLYRRFVL | 0.67 ± 0.052 | 0.72 ± 0.013 | 0.626 ± 0.019 | 0.716 ± 0.018 | 0.443 ± 0.015 | 0.45 ± 0.023 | 0.608 ± 0.016 | 0.491 ± 0.069 |
| RLVWGGLEMFVC | 0.511 ± 0.024 | 0.627 ± 0.013 | 0.496 ± 0.026 | 0.654 ± 0.0094 | 0.109 ± 0.019 | 0.131 ± 0.0028 | 0.21 ± 0.0073 | 0.235 ± 0.043 |
| RPALVSIFLSAY | 0.555 ± 0.018 | 0.567 ± 0.023 | 0.4 ± 0.023 | 0.553 ± 0.0066 | 0.38 ± 0.017 | 0.38 ± 0.021 | 0.532 ± 0.0076 | 0.444 ± 0.027 |
| RPLRRPRLPLLL | 0.654 ± 0.014 | 0.698 ± 0.025 | 0.646 ± 0.0082 | 0.6926 ± 0.0026 | 0.363 ± 0.011 | 0.397 ± 0.035 | 0.581 ± 0.01 | 0.4634 ± 0.0032 |
| RQFRNPLYAFVC | 0.496 ± 0.043 | 0.687 ± 0.011 | 0.566 ± 0.019 | 0.697 ± 0.014 | 0.124 ± 0.0069 | 0.137 ± 0.0092 | 0.187 ± 0.035 | 0.193 ± 0.021 |
| RQRQLAKKQKNA | 0.601 ± 0.043 | 0.7044 ± 0.0043 | 0.646 ± 0.0074 | 0.73 ± 0.0076 | 0.141 ± 0.032 | 0.181 ± 0.021 | 0.306 ± 0.038 | 0.322 ± 0.016 |
| RRFKINKKNKKF | 0.683 ± 0.028 | 0.749 ± 0.035 | 0.64 ± 0.048 | 0.761 ± 0.016 | 0.172 ± 0.026 | 0.189 ± 0.061 | 0.524 ± 0.12 | 0.339 ± 0.052 |
| RRWGFRSFLVGI | 0.728 ± 0.018 | 0.7869 ± 0.0035 | 0.712 ± 0.026 | 0.803 ± 0.026 | 0.645 ± 0.041 | 0.647 ± 0.022 | 0.7579 ± 0.0061 | 0.7307 ± 0.0056 |
| RSGGVPGFGRLC | 0.703 ± 0.033 | 0.7361 ± 0.0064 | 0.661 ± 0.02 | 0.7301 ± 0.003 | 0.658 ± 0.034 | 0.653 ± 0.022 | 0.723 ± 0.037 | 0.745 ± 0.014 |
| RSLRLFGCLGSL | 0.756 ± 0.029 | 0.762 ± 0.027 | 0.647 ± 0.019 | 0.751 ± 0.021 | 0.658 ± 0.039 | 0.647 ± 0.023 | 0.753 ± 0.016 | 0.7185 ± 0.0059 |
| RSWMRHVLRVAS | 0.543 ± 0.048 | 0.701 ± 0.0072 | 0.525 ± 0.026 | 0.719 ± 0.025 | 0.0958 ± 0.0031 | 0.104 ± 0.01 | 0.154 ± 0.013 | 0.194 ± 0.004 |
| RVDEVVKKLRTL | 0.62 ± 0.027 | 0.665 ± 0.047 | 0.667 ± 0.012 | 0.707 ± 0.0091 | 0.0971 ± 0.035 | 0.107 ± 0.028 | 0.17 ± 0.025 | 0.195 ± 0.043 |
| RVHYELEQIVIK | 0.632 ± 0.1 | 0.699 ± 0.019 | 0.581 ± 0.0072 | 0.664 ± 0.059 | 0.585 ± 0.053 | 0.574 ± 0.025 | 0.62 ± 0.064 | 0.518 ± 0.089 |
| RVSVNDGRRDSV | 0.712 ± 0.046 | 0.723 ± 0.016 | 0.652 ± 0.039 | 0.73 ± 0.013 | 0.681 ± 0.011 | 0.664 ± 0.015 | 0.707 ± 0.022 | 0.557 ± 0.18 |
| RWFPPPQYLRLV | 0.567 ± 0.021 | 0.648 ± 0.014 | 0.598 ± 0.02 | 0.68556 ± 0.00021 | 0.19 ± 0.032 | 0.163 ± 0.019 | 0.397 ± 0.024 | 0.288 ± 0.011 |
| RYEKIIKQINKQ | 0.609 ± 0.062 | 0.738 ± 0.015 | 0.655 ± 0.037 | 0.7664 ± 0.0071 | 0.13 ± 0.034 | 0.164 ± 0.06 | 0.429 ± 0.011 | 0.268 ± 0.044 |
| RYSVIRWMLIVC | 0.0413 ± 0.012 | 0.0475 ± 0.01 | 0.0885 ± 0.021 | 0.13 ± 0.0059 | 0.0358 ± 0.01 | 0.0321 ± 0.0053 | 0.0441 ± 0.0061 | 0.051 ± 0.013 |
| SALLLWAISIIC | 0.0476 ± 0.0084 | 0.117 ± 0.055 | 0.169 ± 0.031 | 0.221 ± 0.011 | 0.117 ± 0.019 | 0.15 ± 0.023 | 0.185 ± 0.011 | 0.22 ± 0.015 |
| SCDMIVTLIQIR | 0.5 ± 0.047 | 0.53 ± 0.022 | 0.375 ± 0.033 | 0.539 ± 0.0092 | 0.35 ± 0.016 | 0.383 ± 0.02 | 0.527 ± 0.0017 | 0.409 ± 0.027 |
| SCICTSCLVLVL | 0.5223 ± 0.0033 | 0.509 ± 0.024 | 0.327 ± 0.032 | 0.552 ± 0.002 | 0.298 ± 0.011 | 0.32 ± 0.029 | 0.5334 ± 0.0046 | 0.368 ± 0.049 |
| SCPEFNIRVRNG | 0.641 ± 0.033 | 0.669 ± 0.047 | 0.661 ± 0.023 | 0.731 ± 0.012 | 0.138 ± 0.022 | 0.168 ± 0.028 | 0.409 ± 0.045 | 0.297 ± 0.11 |
| SCSHYRLICSRL | 0.9109 ± 0.0012 | 0.92 ± 0.015 | 0.752 ± 0.022 | 0.87 ± 0.012 | 0.6118 ± 0.0026 | 0.579 ± 0.033 | 0.7975 ± 0.0065 | 0.598 ± 0.25 |
| SDVHLKSEALAA | 0.682 ± 0.024 | 0.69 ± 0.0095 | 0.569 ± 0.025 | 0.656 ± 0.013 | 0.5543 ± 0.0018 | 0.568 ± 0.02 | 0.663 ± 0.024 | 0.542 ± 0.11 |
| SFFLIISFFVRV | 0.2341 ± 0.0015 | 0.394 ± 0.051 | 0.23 ± 0.049 | 0.366 ± 0.031 | 0.239 ± 0.028 | 0.224 ± 0.054 | 0.336 ± 0.013 | 0.338 ± 0.066 |
| SFFSFLLLRVPC | 0.119 ± 0.022 | 0.144 ± 0.019 | 0.203 ± 0.026 | 0.303 ± 0.022 | 0.199 ± 0.0044 | 0.201 ± 0.026 | 0.288 ± 0.043 | 0.308 ± 0.03 |
| SFGSMIITYAWG | 0.616 ± 0.011 | 0.623 ± 0.0089 | 0.467 ± 0.021 | 0.638 ± 0.021 | 0.491 ± 0.065 | 0.486 ± 0.034 | 0.637 ± 0.026 | 0.473 ± 0.034 |
